The values that follow come from patent publication CN112480250A (UNIV SHANGHAI JIAOTONG, dated 2021).

The assay addresses 重组人OPN-R (OPN-N端蛋白, 重组骨桥蛋白N端活性结构域 osteopontin I17-R167) (human). In words: ForteBio BLI, biotinylated OPN-R on streptavidin sensor, antibody at 50-300 nmol/L, 1:1 model.

Sequence of 重组人OPN-R (OPN-N端蛋白, 重组骨桥蛋白N端活性结构域 osteopontin I17-R167) (human) (chain, as listed by the source): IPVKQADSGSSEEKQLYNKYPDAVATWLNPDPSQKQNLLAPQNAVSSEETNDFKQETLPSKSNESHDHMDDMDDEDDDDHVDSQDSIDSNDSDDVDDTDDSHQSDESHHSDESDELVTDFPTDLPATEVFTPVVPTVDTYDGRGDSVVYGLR

B1: 抗OPN嵌合抗体(抗体72B) (antibody, V domains shown)
VH: EVMLVESGGGLLKPGGSLKLSCAASGFTFSSYAMSWVRQTPEKRLEWVATITSGGSYTNYSDSVKGRITISRDNAKNTLYLQMSSLRSEDTAMYYCAREGPAWFAYWGQGTLVTVSA
VL: DIVMTQTPLSLPVSLGDQASISCRSSQSIVHSNGNTYLEWYLQKPGQSPKLLIYKVSNRFSGVPDRFSGSGSGTDFTLKISRVEAEDLGVYYCFQGSHVPPTFGGGTKLEIKR
notes: Mouse/human IgG1 chimera made by overlap PCR and expressed in HEK293E; also called 72B抗体; OPN-Ab(72B)
Usually Kd stands for the constant that tells how readily two partners part at equilibrium. Lower therefore signals a tighter complex. As to B1, binding was put at a Kd of 4.55 nM. In other words, the single-digit nanomolar range.
